Measured values reported in US20030229005A1 (BIOZYME, published 2003).
*1 amine or outer side, *2 acyl side, *3 side chain or, on linkers, in order; H or OH if unused. [ ]: non-standard residue; d: D form. The star is where a group is joined. Dnp = O=[N+]([O-])c1ccc(*)c([N+](=O)[O-])c1; C(Me) = CSC[C@H](N[*:1])C(=O)[*:2]

T1: human Gelatinase-A (human, UniProt P08253 110-660, limits assumed)
T1 sequence (looked up): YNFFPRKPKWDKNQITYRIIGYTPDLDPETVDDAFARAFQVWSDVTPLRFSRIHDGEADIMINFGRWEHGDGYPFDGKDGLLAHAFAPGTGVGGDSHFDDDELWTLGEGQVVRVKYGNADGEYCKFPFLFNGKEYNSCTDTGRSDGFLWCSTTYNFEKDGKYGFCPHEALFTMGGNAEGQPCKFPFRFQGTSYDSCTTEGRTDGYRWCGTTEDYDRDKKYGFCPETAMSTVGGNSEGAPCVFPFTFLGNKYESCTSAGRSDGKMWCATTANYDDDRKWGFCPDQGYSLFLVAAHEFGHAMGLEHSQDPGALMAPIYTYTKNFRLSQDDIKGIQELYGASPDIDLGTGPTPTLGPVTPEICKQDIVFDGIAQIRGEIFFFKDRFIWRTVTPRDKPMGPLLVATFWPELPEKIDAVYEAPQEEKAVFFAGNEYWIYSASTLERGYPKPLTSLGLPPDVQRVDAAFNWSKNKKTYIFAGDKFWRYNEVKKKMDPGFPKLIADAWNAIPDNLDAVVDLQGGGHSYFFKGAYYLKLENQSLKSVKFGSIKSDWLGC

T2: collagenase 1 (UniProt P03956 100-469, limits assumed)
T2 sequence (looked up): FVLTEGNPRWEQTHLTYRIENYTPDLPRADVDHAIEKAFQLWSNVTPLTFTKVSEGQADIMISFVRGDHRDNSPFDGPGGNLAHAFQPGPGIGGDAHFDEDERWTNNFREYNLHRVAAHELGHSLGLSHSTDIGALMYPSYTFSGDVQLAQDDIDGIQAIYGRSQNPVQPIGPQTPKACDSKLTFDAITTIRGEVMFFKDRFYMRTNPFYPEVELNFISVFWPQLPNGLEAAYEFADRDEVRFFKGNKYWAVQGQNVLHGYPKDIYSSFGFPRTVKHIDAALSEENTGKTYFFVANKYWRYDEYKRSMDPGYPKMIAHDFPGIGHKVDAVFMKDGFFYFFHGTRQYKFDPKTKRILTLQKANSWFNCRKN

B1: Dnp-GPSPFHVC(Me)-NH2 (peptide)
peptide: Dnp-GPSPFHV[C(Me)]-NH2
SMILES: CSC[C@H](NC(=O)[C@@H](NC(=O)[C@H](Cc1c[nH]cn1)NC(=O)[C@H](Cc1ccccc1)NC(=O)[C@@H]1CCCN1C(=O)[C@H](CO)NC(=O)[C@@H]1CCCN1C(=O)CNc1ccc([N+](=O)[O-])cc1[N+](=O)[O-])C(C)C)C(N)=O
B2: Dnp-GPAPFRGC(Me)-NH2 (peptide)
peptide: Dnp-GPAPFRG[C(Me)]-NH2
SMILES: CSC[C@H](NC(=O)CNC(=O)[C@H](CCCNC(=N)N)NC(=O)[C@H](Cc1ccccc1)NC(=O)[C@@H]1CCCN1C(=O)[C@H](C)NC(=O)[C@@H]1CCCN1C(=O)CNc1ccc([N+](=O)[O-])cc1[N+](=O)[O-])C(N)=O
B3: Dnp-GPAPLHVC(Me)-NH2 (peptide)
peptide: Dnp-GPAPLHV[C(Me)]-NH2
SMILES: CSC[C@H](NC(=O)[C@@H](NC(=O)[C@H](Cc1c[nH]cn1)NC(=O)[C@H](CC(C)C)NC(=O)[C@@H]1CCCN1C(=O)[C@H](C)NC(=O)[C@@H]1CCCN1C(=O)CNc1ccc([N+](=O)[O-])cc1[N+](=O)[O-])C(C)C)C(N)=O
B4: Dnp-GPLPFHVC(Me)-NH2 (peptide)
peptide: Dnp-GPLPFHV[C(Me)]-NH2
SMILES: CSC[C@H](NC(=O)[C@@H](NC(=O)[C@H](Cc1c[nH]cn1)NC(=O)[C@H](Cc1ccccc1)NC(=O)[C@@H]1CCCN1C(=O)[C@H](CC(C)C)NC(=O)[C@@H]1CCCN1C(=O)CNc1ccc([N+](=O)[O-])cc1[N+](=O)[O-])C(C)C)C(N)=O
B5: Dnp-GPLPFRVC(Me)-NH2 (peptide)
peptide: Dnp-GPLPFRV[C(Me)]-NH2
SMILES: CSC[C@H](NC(=O)[C@@H](NC(=O)[C@H](CCCNC(=N)N)NC(=O)[C@H](Cc1ccccc1)NC(=O)[C@@H]1CCCN1C(=O)[C@H](CC(C)C)NC(=O)[C@@H]1CCCN1C(=O)CNc1ccc([N+](=O)[O-])cc1[N+](=O)[O-])C(C)C)C(N)=O
B6: Dnp-GPAPLHGC(Me)-NH2 (peptide)
peptide: Dnp-GPAPLHG[C(Me)]-NH2
SMILES: CSC[C@H](NC(=O)CNC(=O)[C@H](Cc1c[nH]cn1)NC(=O)[C@H](CC(C)C)NC(=O)[C@@H]1CCCN1C(=O)[C@H](C)NC(=O)[C@@H]1CCCN1C(=O)CNc1ccc([N+](=O)[O-])cc1[N+](=O)[O-])C(N)=O
B7: Dnp-GPAPFRVC(Me)-NH2 (peptide)
peptide: Dnp-GPAPFRV[C(Me)]-NH2
SMILES: CSC[C@H](NC(=O)[C@@H](NC(=O)[C@H](CCCNC(=N)N)NC(=O)[C@H](Cc1ccccc1)NC(=O)[C@@H]1CCCN1C(=O)[C@H](C)NC(=O)[C@@H]1CCCN1C(=O)CNc1ccc([N+](=O)[O-])cc1[N+](=O)[O-])C(C)C)C(N)=O
B8: Dnp-PHPFRG-NH2 (peptide)
peptide: Dnp-PHPFRG-NH2
SMILES: N=C(N)NCCC[C@H](NC(=O)[C@H](Cc1ccccc1)NC(=O)[C@@H]1CCCN1C(=O)[C@H](Cc1c[nH]cn1)NC(=O)[C@@H]1CCCN1c1ccc([N+](=O)[O-])cc1[N+](=O)[O-])C(=O)NCC(N)=O
B9: Dnp-GPSPFRGC(Me)-NH2 (peptide)
peptide: Dnp-GPSPFRG[C(Me)]-NH2
SMILES: CSC[C@H](NC(=O)CNC(=O)[C@H](CCCNC(=N)N)NC(=O)[C@H](Cc1ccccc1)NC(=O)[C@@H]1CCCN1C(=O)[C@H](CO)NC(=O)[C@@H]1CCCN1C(=O)CNc1ccc([N+](=O)[O-])cc1[N+](=O)[O-])C(N)=O
B10: Dnp-GPSPLHGC(Me)-NH2 (peptide)
peptide: Dnp-GPSPLHG[C(Me)]-NH2
SMILES: CSC[C@H](NC(=O)CNC(=O)[C@H](Cc1c[nH]cn1)NC(=O)[C@H](CC(C)C)NC(=O)[C@@H]1CCCN1C(=O)[C@H](CO)NC(=O)[C@@H]1CCCN1C(=O)CNc1ccc([N+](=O)[O-])cc1[N+](=O)[O-])C(N)=O
B11: Dnp-GPLPFRGC(Me)-NH2 (peptide)
peptide: Dnp-GPLPFRG[C(Me)]-NH2
SMILES: CSC[C@H](NC(=O)CNC(=O)[C@H](CCCNC(=N)N)NC(=O)[C@H](Cc1ccccc1)NC(=O)[C@@H]1CCCN1C(=O)[C@H](CC(C)C)NC(=O)[C@@H]1CCCN1C(=O)CNc1ccc([N+](=O)[O-])cc1[N+](=O)[O-])C(N)=O
B12: Dnp-GPLGFRGC(Me)-NH2 (peptide)
peptide: Dnp-GPLGFRG[C(Me)]-NH2
SMILES: CSC[C@H](NC(=O)CNC(=O)[C@H](CCCNC(=N)N)NC(=O)[C@H](Cc1ccccc1)NC(=O)CNC(=O)[C@H](CC(C)C)NC(=O)[C@@H]1CCCN1C(=O)CNc1ccc([N+](=O)[O-])cc1[N+](=O)[O-])C(N)=O
B13: Dnp-GPLGFRVC(Me)-NH2 (peptide)
peptide: Dnp-GPLGFRV[C(Me)]-NH2
SMILES: CSC[C@H](NC(=O)[C@@H](NC(=O)[C@H](CCCNC(=N)N)NC(=O)[C@H](Cc1ccccc1)NC(=O)CNC(=O)[C@H](CC(C)C)NC(=O)[C@@H]1CCCN1C(=O)CNc1ccc([N+](=O)[O-])cc1[N+](=O)[O-])C(C)C)C(N)=O
B14: Dnp-GPLGLHGC(Me)-NH2 (peptide)
peptide: Dnp-GPLGLHG[C(Me)]-NH2
SMILES: CSC[C@H](NC(=O)CNC(=O)[C@H](Cc1c[nH]cn1)NC(=O)[C@H](CC(C)C)NC(=O)CNC(=O)[C@H](CC(C)C)NC(=O)[C@@H]1CCCN1C(=O)CNc1ccc([N+](=O)[O-])cc1[N+](=O)[O-])C(N)=O

target: T1, human Gelatinase-A; experiment: cell-based or functional assay

| Selectivity v. Coll-3 [unitless] | Binder |
| --- | --- |
| 18 | B1 |
| 9 | B2 |
| 12 | B3 |
| 20 | B4 |
| 36 | B5 |
| 12 | B6 |
| 37 | B7 |
| 28 | B8 |
| 10 | B9 |
| 8 | B10 |
| 16 | B11 |
| 10 | B12 |
| 15 | B13 |
| 16 | B14 |

target: gelatinase B (UniProt P14780 107-707, limits assumed); experiment: cell-based or functional assay
Sequence (P14780 107-707 limits assumed): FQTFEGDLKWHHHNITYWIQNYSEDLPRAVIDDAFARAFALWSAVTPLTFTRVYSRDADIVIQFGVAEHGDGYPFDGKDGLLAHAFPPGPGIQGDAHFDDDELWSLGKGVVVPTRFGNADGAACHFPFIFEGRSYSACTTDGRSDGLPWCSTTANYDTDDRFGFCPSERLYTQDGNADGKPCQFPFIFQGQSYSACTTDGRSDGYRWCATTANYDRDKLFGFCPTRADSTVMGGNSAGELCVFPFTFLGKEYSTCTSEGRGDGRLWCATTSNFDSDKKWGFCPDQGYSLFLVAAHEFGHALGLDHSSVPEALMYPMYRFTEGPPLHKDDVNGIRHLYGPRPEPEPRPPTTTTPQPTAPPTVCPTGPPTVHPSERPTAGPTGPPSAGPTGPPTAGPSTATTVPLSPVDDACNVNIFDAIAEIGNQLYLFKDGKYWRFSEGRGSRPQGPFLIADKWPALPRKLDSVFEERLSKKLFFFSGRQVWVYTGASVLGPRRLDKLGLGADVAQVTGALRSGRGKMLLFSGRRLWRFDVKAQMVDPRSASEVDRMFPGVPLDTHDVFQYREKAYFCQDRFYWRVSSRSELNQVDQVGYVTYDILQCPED

| Selectivity v. Coll-3 [unitless] | Binder |
| --- | --- |
| 54 | B1 |
| 14 | B2 |
| 11 | B3 |
| 18 | B4 |
| 21 | B5 |
| 10 | B6 |
| 82 | B7 |
| 4 | B8 |
| 13 | B9 |
| 7 | B10 |
| 8 | B11 |
| 7 | B12 |
| 20 | B13 |
| 5 | B14 |

target: T2, collagenase 1; experiment: cell-based or functional assay

| Selectivity v. Coll-3 [unitless] | Binder |
| --- | --- |
| 1570 | B1 |
| 4420 | B2 |
| 126 | B3 |
| 2950 | B4 |
| 550 | B5 |
| 473 | B6 |
| 5790 | B7 |
| 2230 | B8 |
| 2430 | B9 |
| 274 | B10 |
| 429 | B11 |
| 10600 | B12 |
| 17300 | B13 |
| 660 | B14 |

target: stromelysin 1 (UniProt P08254 100-477, limits assumed); experiment: cell-based or functional assay
Sequence (P08254 100-477 limits assumed): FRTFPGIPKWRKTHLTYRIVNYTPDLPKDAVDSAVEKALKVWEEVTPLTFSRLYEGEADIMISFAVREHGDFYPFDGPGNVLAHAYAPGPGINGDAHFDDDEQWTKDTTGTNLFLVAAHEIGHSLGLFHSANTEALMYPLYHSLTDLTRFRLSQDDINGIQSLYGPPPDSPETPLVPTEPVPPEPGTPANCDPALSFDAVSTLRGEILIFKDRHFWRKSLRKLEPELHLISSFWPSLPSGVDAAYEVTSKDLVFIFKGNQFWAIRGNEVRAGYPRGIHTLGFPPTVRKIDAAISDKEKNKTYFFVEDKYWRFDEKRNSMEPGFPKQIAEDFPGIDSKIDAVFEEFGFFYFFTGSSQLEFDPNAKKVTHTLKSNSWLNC

| Selectivity v. Coll-3 [unitless] | Binder |
| --- | --- |
| 2100 | B1 |
| 488 | B2 |
| 264 | B3 |
| 619 | B4 |
| 332 | B5 |
| 620 | B6 |
| 448 | B7 |
| 1050 | B8 |
| 1390 | B9 |
| 2990 | B10 |
| 814 | B11 |
| 7290 | B12 |
| 3970 | B13 |
| 10400 | B14 |
